Inhibition of IGF-1- and IGF-2-mediated IGF-1R phosphorylation in MCF-7 cells, EC50 data for 2 molecules are collected here from patent publication CN101415728A.

A value given as a limit tells only on which side of the number the result lay.

The assay addresses human IGF-1R expressed on cells (human). The experiment in a line: cell-based or functional assay.

B1: M14-C03.G4.P.agly (antibody, part only; not given: constant regions, human IgG4, part only)
heavy, part: EVQLLESGGGLVQPGGSLRLSCAASGFTFSKYMMSWVRQAPGKGLEWVSYISPSGGLTWYADSVKGRFTISRDNSKNTLYLQMNSLRAEDTAVYYCARDGARGYGMDVWGQGTTVTVSS
light, part: DIQMTQSPATLSLSPGERATLSCRASQSVSSYLAWYQQKPGQAPRLLIYDASNRATGIPARFSGSGSGTDFTLTISSLEPEDFAVYYCQQRSNWPPEVTFGPGTKVDIK
B1 gave an inhibition of IGF-1- and IGF-2-mediated IGF-1R phosphorylation in MCF-7 cells, EC50 of less than 1 nM.

B2: M13-C06.G4.P.agly (antibody, part only; not given: constant regions, part only)
heavy, part: EVQLLESGGGLVQPGGSLRLSCAASGFTFSIYRMQWVRQAPGKGLEWVSGISPSGGTTWYADSVKGRFTISRDNSKNTLYLQMNSLRAEDTAVYYCARWSGGSGYAFDIWGQGTMVTVSS
light, part: DIQMTQSPLSLSASVGDRVTITCQASRDIRNYLNWYQQKPGKAPKLLIYDASSLQTGVPSRFGGSGSGTDFSFTIGSLQPEDIATYYCQQFDSLPHTFGQGTKLEIK
For B2, the inhibition of IGF-1- and IGF-2-mediated IGF-1R phosphorylation in MCF-7 cells, EC50 is less than 1 nM.
